The target of experiment [1] is T1, human ErbB-3 (HER3) (human, UniProt P21860 20-1342). Kind of experiment: cell-based or functional assay.
For experiment [2], the target named is T2, human ErbB-2 (HER2) (human, UniProt P04626 23-1255). Kind of experiment: cell-based or functional assay.
Experiment [3] has as its target T2, human ErbB-2 (HER2). Kind of experiment: antigen titration ELISA: coated monomeric HER2 (ECD-Erbb-2) varied about 0.019-2.5 µg/ml (x axis), IgG fixed at 10 µg/ml as the text says; readout OD450 [lower panel].
Protocol: Wells of the ELISA plates were blocked with PBS (pH 7.2) containing 5% BSA for 1 hour at 37° C. Selected antibodies were tested in duplo at a concentration of 10 µg/ml diluted in PBS-2% BSA and allowed to bind for 2 hours at 25° C. As a control the procedure was performed simultaneously with an antibody specific for the coated antigens and a negative control antibody. The ELISA plates were washed 5 times with PBS-T (PBS-0.05% v/v Tween 20). Bound IgG was detected with 1:2000 diluted IIRP-conjugate (Goat anti-mouse IgG, BD Biosciences) and was allowed to bind for 2 hours at 25° C. The ELISA plates were washed 5 times with PBS-T (PBS-0.05% Tween 20) and bound IgG was detected by means of OD492 nm measurement.
In experiment [4] the target is T1, human ErbB-3 (HER3). Kind of experiment: FACS on CHO-K1 cells with HER3 constructs; epitope group 3 = 'Reactivity to rat, cyno and human HER3' (Table 5).
In experiment [5] the target is human HER2 and HER3 co-expressed on tumour cells (human, UniProt P04626 23-1255; P21860 20-1342). Kind of experiment: cell-based or functional assay.
The target in experiment [6] is T3, ErbB2-Fc (RND systems) (UniProt P04626 23-652).
T3 construct: Bought protein; also called Fc-HER2; Her2-Fc; not shown: Fc part of the bought fusion protein
Kind of experiment: SPR (BIACORE T100), ErbB2-Fc on CM5 chip, bispecific as analyte, 1:1 monovalent model. In general terms: SPR reads the build-up and loss of mass on a sensor chip optically.

B1: #Ab6 (antibody, V domains shown)
VH: EVQLLESGGGLVQPGGSLRLSCAASGFTFSHYVMAWVRQAPGKGLEWVSSISSSGGWTLYADSVKGRFTISRDNSKNTLYLQMNSLRAEDTAVYYCTRGLKMATIFDYWGQGTLVTVSS
VL: QSALTQPASVSGSPGQSITISCTGTSSDVGSYNVVSWYQQHPGKAPKLIIYEVSQRPSGVSNRFSGSKSGNTASLTISGLQTEDEADYYCCSYAGSSIFVIFGGGTKVTVL
Turning to B1, in experiment [1], the “BxPC3 % Inhibition” value is -7% and the “MCF-7 IC50 (pM), HRG dependent proliferation” value (shortened to “MCF-7 IC50 (pM)”) was 504 pM.

B2: PG2973 (antibody, IgG1, V domains shown)
VH: QVQLKQSGAELVRPGASVKLSCKASGYIFTGYYINWLRQRPGQGLEWIAKIYPGSGNTYYNEKFRGKATLTAEESSSTAYMQLSSLTSEDSAVYFCARGPHYDYDGPWFVYWGQGTLVTVSS
VL: not shown
On to B2, for which, in experiment [2], the “HRG dependent MCF-7 proliferation assay, % activity compared to #Ab6, 1 µg/ml IgG” value worked out at 58% and the “SKBR-3 proliferation assay, % activity compared to trastuzumab, 1 µg/ml IgG” value (shortened to “SKBR-3 proliferation assay, % activity”) was 49%.

B3: PG2930 (antibody, IgG1, V domains shown)
VH: EVQLQQSGAELVKPGASVMMSCKVSGYTFTSYPIAWMKQVHGKSLEWIGNFHPYSDDTKYNENFKGKATLTVEKSSSTVYLELSRLTSDDSAVYYCARSNPLYYFAMDYWGQGTSVTVSS
VL: not shown
notes: Monospecific IgG1; also called MF2930; copies: 2 + 2
What is called EC50 (read off the curve) is the concentration giving half of the maximal effect. As for B3, in experiment [3], the concentration for a half-maximal effect (EC50 (read off the curve)) is about 0.7 µg/mL. Moreover, in experiment [2], the “HRG dependent MCF-7 proliferation assay, % activity compared to #Ab6, 1 µg/ml IgG” value was determined as 7% and the “SKBR-3 proliferation assay, % activity” value was found to be 0%.

B4: PG3099 (antibody, IgG1, V domains shown)
VH: EVQLQQPGAELVRPGTSVKLSCKASGYTFTSYWMHWVKQRPGQGLEWIGILDPSDSYTTYNQKFKGKATLTVDTSSSIAYMQLSSLTSEDSALYYCARGGDYDEGGAMDYWGQGTSVTVSS
VL: not shown
notes: Monospecific IgG1; also called MF3099; copies: 2 + 2
B4: the binding result in experiment [4] was “binds”.

B5: PB3448 (MF1849xMF3178) (bispecific antibody, IgG1, V domains shown)
VH 1: QVQLVESGGGVVQPGRSLRLSCAASGFTFSSYGMHWVRQAPGKGLEWVAVISYDGSNKYYADSVKGRFTISRDNSKNTLYLQMNSLRAEDTAVYYCAKGDYGSYSSYAFDYWGQGTLVTVSS
VH 2: not shown
VL: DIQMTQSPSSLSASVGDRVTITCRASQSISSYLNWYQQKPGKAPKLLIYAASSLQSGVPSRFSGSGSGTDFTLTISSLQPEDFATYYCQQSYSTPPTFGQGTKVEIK
notes: IgG1 bispecific with CH3 heterodimerisation mutations
As usually defined, the Kd is the free concentration of one partner at which half of the binding sites on the other are occupied at equilibrium, for simple one-to-one binding. A lower Kd goes with tighter binding. As to B5, in experiment [5], the “BxPC3 % Inhibition” value is -22% and the “MCF-7 IC50 (pM)” value worked out at 371 pM. The molecule further displayed a Kd in experiment [6] of 5.4 nM.

B6: PB3566 (MF3004xMF3178) (bispecific antibody, IgG1, V domains shown)
VH 1: QVQLKQSGAELVRPGASVKLSCKASGYTFTGYYINWVKQRPGQGLEWIARIYPGSGYTYYNEKFKGKATLTAEESSSTAYMHLSSLTSEDSAVYFCARPHYGYDDWYFGVWGTGTTVTVSS
VH 2: not shown
VL: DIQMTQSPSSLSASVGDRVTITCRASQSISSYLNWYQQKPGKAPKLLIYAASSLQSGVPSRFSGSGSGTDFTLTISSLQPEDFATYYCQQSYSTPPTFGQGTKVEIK
With B6, in experiment [5], the “BxPC3 % Inhibition” value is -20% and the “MCF-7 IC50 (pM)” value was 7.9 pM.

B7: PG3004 (antibody, IgG1, V domains shown)
VH: B6 VH 1
VL: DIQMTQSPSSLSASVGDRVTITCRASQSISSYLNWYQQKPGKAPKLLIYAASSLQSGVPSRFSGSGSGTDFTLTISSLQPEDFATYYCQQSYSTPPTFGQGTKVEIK
For the molecule B7, in experiment [2], the “HRG dependent MCF-7 proliferation assay, % activity compared to #Ab6, 1 µg/ml IgG” value was 56% and the “SKBR-3 proliferation assay, % activity” value was determined as 49%.

The record behind these values is US11279770 (MERUS N V, dated 2022).
